Measurements from paper PMC13077772 (2025).

Molecular target: melanoma-associated antigen 3 (MAGE-A3) peptide presented by HLA-A*01:01 (human | )
Assay: SPR

- Kd: 0.029 µM
B1: mage-513, purified soluble protein (designed binder)
chain: LTVEEAIRLLLETQRRYPELGPEERQVADGALRVASLLLDIIATRRLLGDDDKELEKQLLKRIERLFTAPLPERRRLVEELEEPVLEEAAQAARELVKREQQ
modifications: heavy chain HLA-A*01:01 ectodomain taken by convention from the MAGE-A3/HLA-A1 structure 5BRZ (candidate P04439 is a different allele, A*03:01)
